Experimental data taken from the nanobody polyreactivity screen of Harvey et al. (2022).

Assay: yeast display, Sf9 membrane polyspecificity reagent, FACS + sequencing; frameworks hold sequencing errors
Procedure, shortened: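 After 36–48 hours of galactose induction, yeast (Saccharomyces cerevisiae BJ5465) displaying a synthetic nanobody library were stained at 4 °C for 1 hour with 10% biotinylated, detergent-solubilized Sf9 membrane reagent. Streptavidin microbeads enriched the stained cells before FACS sorting into low and high (top ~1%) gates on anti-HA and streptavidin fluorescence. Each clone's polyreactivity label reflects its gate of origin.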

Row | Sequence | polyreactivity (PSR sort gate)
1 | QVQLVESGGGLVQAGGSLRLSCAASGFIFFINDMGWYRQAPGKERELVAAISWSGGSTYYADSVKGRFTISRDNAKNTVYLQMNSLKPEDTAVYYCAADWLIYDLSRFDYWGQGTQVTVSS | low polyreactivity
2 | QVQLVESGGRLVQAGGSLRLSCAASGSTFGWYAMAWYRPAPGKERELVAAIRSNGGSTYYADSVKGRFTISRDNAKNTVYLQMNSLKPEDTAVYYCAARGSPSKHHWYDYWGQGTQVTVSS | low polyreactivity
3 | QVQLVESGGGLVQAGGSLRLSSAASGSTFFTNALGWYRPAPGKERELGAVITKRGGSTYYADSVKGRFTISRDNAKNPVYLQMNSLKPEDTAVYYCAARIPKQQGYGYWGQGTQVTVSS | high polyreactivity
4 | QVQLEESGGGLVQAGGSLRLSCAASGFTLDTYAMGWYRQAPGKERELVAAITSRGGTTYYADSVKGRFTISRDNAKNTVYLQMNSLKPEDTAVYYCNAVTKRWWYRTGYGYWGQGTQVTVSS | high polyreactivity
5 | QVQLVESGGGLVQAGGSLRLSCAASGRTFRTYAMGWYRQAPGKERELVAAITSRAGSTYYADSVKGRFTISRDNAKNSVYLQMNSLKPEDTAVYYCAKQYYYGWYWGEDYWGQGTQVTVSS | low polyreactivity
6 | QVQLVESGGGLVQAGGSLRLSCAASGYTFYLYAMGWYRQAPGKESELVAAISTNGGRTYYADSVKGRFTISRDNAKNTVYLQMNSLKPEDTAVYYCAVRSRGTAPQYYYWGQGTQVTVSS | high polyreactivity
7 | QVQLVESGGGLVQAGGSLRLSCAASGSIFGLYAMGWYIQAPGKERELVATISKSGVSTYYADSVKGRFTISRDNEKNTVYLQMKSLKPEVTAVYYCNADISRDNDFDYWGQGTQVTVSA | low polyreactivity
8 | QVQLVESGGGLVQAGGSLRLSCAASGSIFVSNAMGWYRQAPGKEREFDAGITRRGGRTYYADSVKGRFTISRDNAKNTVYLQMNSLKPEDTPVYYCAAKSTTSRFDYWGQGTQVTVSS | high polyreactivity
9 | QVQLVESGGGLVQAGGSLRLSCAASGSTFWYYTMGSYRQAPGKERELVAAIRYSGTRTYYADSVKGRFTISRDNAKTTVYLQMNSLKPEDTAVYYCARYRTPGYQAYLYDYWGQGTQVTVSS | low polyreactivity
10 | QVQLVQTGGGVVQAGGSLRLSCAASGRIFNSYPMGWYRQAPGKERELVASINRYGGSTYYADSVKGRFTISRDNAKNTVYLQMYSLNPEDTSVYYCAARGYTSFNTGYGYWGQGTQVSVSS | high polyreactivity
11 | QVQHVESRGGLVQAGGSLRLSCDASGSTFVTYAMGWYRQAPGKERELVAAISRSGGSTYYADSVKGRFTISRDNAKNTVYLQMNSLKPEDTAVYYCAARDGYGATGHDYWGQGTQVTVSS | low polyreactivity
12 | QVQLVESGGGLVQAGGSLRLSCAASGSIFGSYTMGWYRPAPGKERELVAAITSGGGNTYYADSVKGRFTISRDNAKNTVYLQMNSLKPEDTAVYYCAARERYTGYGSWGQGTQVTVSS | high polyreactivity
13 | QVQLVESGGGLVQAGGSLRLSCAASGRIFKLYAMGWYRQEPGKVRELVASITWGGGSTNYADSVKGRFTISRDNAKNTVYLQMNSLKQEDTAVYYCAAVYSKFAVFWEYDYWGQGTQVTVSS | low polyreactivity
14 | QVQLVESGGGLVQAGGSLRLSRAASGGTFFVYMGWYRQAPGKERELVADISGSGGGTYYADSVKGRFTISRDNAKNTVYLQMNSLKPEDTAVYYCATDVPTGIIRMYWGQGTQVTVSS | low polyreactivity
15 | QVQLVESGGGLVQAGGSLRLSCAASGFTLLKYAMGWYIQAPGKERELVAAITRRGGRTSYADSVKGRFTISRDNAKNTVYLQMNSLKPEDTAVYYCNADGDTGRFDYWGQGTQVTVSS | high polyreactivity
16 | QVQLVESGGGLVQAGGSLRLSCAASGSTFYRYAMGWYRQAPGKERELVAAISTRSGSTYYADSVKGRFTISRDNAKNTVYLQMNSLKPEDTAVYYCAADGHKKTARKYYYWGQGTEVTVSS | low polyreactivity
